Reference: patent US20260193375A1 (NORMUNITY, published 2026)

Tests used:
hLY6K-mFc = target: T1, hLY6K-mFc (human, UniProt Q17RY6 18-138); test: SPR (Carterra LSA), mAb captured on anti-human IgG-Fc, antigen as analyte
T1 construct: not shown: mFc
T1 sequence: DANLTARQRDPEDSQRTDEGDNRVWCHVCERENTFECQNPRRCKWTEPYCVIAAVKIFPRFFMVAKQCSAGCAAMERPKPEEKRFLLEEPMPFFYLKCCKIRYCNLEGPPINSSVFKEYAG

rLY6K-mFc = target: T2, rLY6K-mFc (rat); test: as above
T2 chain: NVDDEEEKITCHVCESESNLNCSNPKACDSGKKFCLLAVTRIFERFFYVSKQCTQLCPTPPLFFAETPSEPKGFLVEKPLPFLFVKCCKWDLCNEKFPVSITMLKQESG

hLY6K-his = target: T3, hLY6K-his (human, UniProt Q17RY6 18-138, limits assumed); test: as above
T3 construct: not shown: his tag
T3 sequence: T1 sequence

cyLY6K-mFc = cyLY6K-mFc (cynomolgus monkey); test: as above
Human LY6K (R&D Systems) = target: T4, Human LY6K (R&D Systems) (human, UniProt Q17RY6 18-138, limits assumed); test: ELISA, coated antigen, IgG1 at 10 ug/ml
T4 construct: Bought from R&D Systems, coated on ELISA plates; also called hLY6K
T4 sequence: T1 sequence

[1] = target: T5, cynomolgus monkey LY6K (R&D Systems) (cynomolgus monkey); test: ELISA, coated antigen, IgG1 at 10 ug/ml
T5 construct: also called cyLY6K

human LY6E (R&D Systems) [2] = target: T6, human LY6E (R&D Systems) (human, UniProt Q16553 21-101, limits assumed); test: ELISA, coated antigen, IgG1 at 10 ug/ml
T6 construct: also called hLY6E
T6 sequence (looked up): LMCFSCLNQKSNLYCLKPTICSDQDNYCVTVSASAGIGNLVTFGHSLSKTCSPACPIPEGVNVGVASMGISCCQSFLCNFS

rat LY6K (R&D Systems) = target: T7, rat LY6K (R&D Systems) (rat); test: ELISA, coated antigen, IgG1 at 10 ug/ml
T7 construct: also called rLY6K

[3] = target: T8, recombinant human LY6K (Wuxi) (human, UniProt Q17RY6 18-138); test: capture ELISA (MSD): antibody coated as capture at 2 µg/mL, recombinant human LY6K titrated, sulfo-tagged polyclonal anti-hLY6K (AF6648) for detection; EC50 is the LY6K concentration
T8 construct: Limits of the construct not clearly stated; also called Human LY6K (Wuxi LY^KGLY138(1-38TR)_8His)
T8 sequence: T1 sequence

[4] = target: T8, recombinant human LY6K (Wuxi); test: ELISA, LY6K coated at 2 ug/mL, HRP-labelled mAb titrated
Ly6H = target: T9, Ly6H; test: ELISA, antigen coated on the plate, antibody as human IgG1, anti-human F(ab)2 HRPO
T9 chain: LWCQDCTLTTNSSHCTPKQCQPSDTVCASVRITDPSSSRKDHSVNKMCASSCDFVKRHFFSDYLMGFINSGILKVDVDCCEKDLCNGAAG

human LY6E (R&D Systems) [5] = target: T6, human LY6E (R&D Systems); test: as above
Ly6D = target: T10, Ly6D; test: as above
T10 chain: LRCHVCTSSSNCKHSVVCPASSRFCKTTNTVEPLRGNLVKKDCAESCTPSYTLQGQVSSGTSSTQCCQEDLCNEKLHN

B1: anti-LY6K antibody 3082 (antibody, V domains shown)
VH: EVQLVESGGGLVKPGGSLRLSCAASGFTFSSSSMNWVRQAPGKGLEWVSSISRSSYYIYYADSVEGRFTISRDNAKNSLYLQMNSLRAEDTAVYYCAKIGSSSEGVEDYYYYYYMDVWGKGTTVTVSS
VL: DIQMTQSPSSLSASVGDRVTITCRASQNINSYLNWYQQKPGKAPKLLIYAASSLQSGVPSRFSGSGSGTDFTLTISSLQPEDFATYYCHQSYSTPLTFGGGTKVEIK
- Kd (hLY6K-mFc): 0.0444 nM
- Kd (rLY6K-mFc): 240 nM
- Kd (hLY6K-his): 2.06 nM
- Kd (cyLY6K-mFc): 0.103 nM
- % of maximum of commercial anti-LY6K mAb on human LY6K (Human LY6K (R&D Systems)): 87.2%
- % of maximum of commercial anti-LY6K mAb on human LY6K [1]: 95.2%
- % of maximum of commercial anti-LY6K mAb on human LY6K (human LY6E (R&D Systems) [2]): 2.1%
- % of maximum of commercial anti-LY6K mAb on human LY6K (rat LY6K (R&D Systems)): -0.5%
- EC50 [3]: 0.0958 mg/L
- EC50 [4]: 4.59 nM
- binding result (Ly6H): no binding (tested: 10 µg/ml)
- binding result (human LY6E (R&D Systems) [5]): no binding (tested: 10 µg/ml)
- binding result (Ly6D): no binding (tested: 10 µg/ml)
